# Test results as given in paper PMC9094124.
# Key:
# [1] = target: c-JO4 (cGMP-compliant JO4 junction opener protein) (human adenovirus serotype 3); assay: SDS-PAGE, not boiled and not reduced; 4-15% gradient gel, running buffer with 0.1% SDS, 1 ug protein, sample not boiled and not reduced
# [2] = target: c-JO4 (cGMP-compliant JO4 junction opener protein) (human adenovirus serotype 3); assay: SEC + other: negative-stain electron microscopy; SEC on Superdex 200 Increase 10/300 in TBS, 1 mL/min; EM with 1% sodium silicotungstate pH 7.0, protein at 0.1 mg/ml
substance,measurement,setting,value
c-JO4 (cGMP-compliant JO4 junction opener protein) (domain or fragment),stoichiometry N,[1],3
same,stoichiometry N,[2],6
